Biological target: IGF-II (insulin-like growth factor-II)
Assay: SPR; BIAcore; who was immobilised, buffer, pH and temperature not stated (abstract P25)

Row | Kd [µM] | koff [s⁻¹] | kon [M⁻¹ s⁻¹] | Substance
1 | 0.134 | 0.0082 | 61300 | IGF2R domains 11-12 (domain or fragment)
2 | 0.0493 | 0.00808 | 164000 | IGF2R domains 10-13 (domain or fragment)
3 | 0.346 | 0.0086 | 24800 | IGF2R domains 10-12 (domain or fragment)
4 | 0.00955 | 0.0113 | 1.18e+06 | sIGF2R (domains 1-15), soluble insulin-like growth factor 2 receptor (from UniProt P11717 41-2304)
5 | 0.0426 | 0.00426 | 100000 | IGF2R domains 11-13 (domain or fragment)
6 | 0.153 | 0.0138 | 90000 | IGF2R domain 11 (domain or fragment)

From publication PMC2363545
